Source: publication PMC4022583, “The C-Terminal Random Coil Region Tunes the Ca^2+-Binding Affinity of S100A4 through Conformational Activation” (PLoS ONE, 2014)
Values belong to the binder of their own block, whether it stands above or below them.

Key:
[1] = target: the molecule itself; test: pulsed field gradient NMR diffusion; Ca2+-bound: same sample after addition of Ca2+ to 9 mM, 287 K; one and two components fitted for WT
[2] = target: T1, S100A4Δ13 (C-terminal deletion mutant, residues 1-88) (human, UniProt P26447 1-88); test: ITC; 75 µM S100A4Δ13 in the cell titrated with MPT at 25°C (298 K) in the presence of 1 mM CaCl2; settings: both partners purified
T1 construct: human S100A4, residues 1-88 (F89-K101 deleted); also called Δ13 mutant; Δ13 S100A4
T1 sequence (P26447 1-88, stated change not applied): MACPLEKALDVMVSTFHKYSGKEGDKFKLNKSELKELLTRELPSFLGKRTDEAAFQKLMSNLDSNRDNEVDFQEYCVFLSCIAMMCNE

B1: S100A4 C-terminal deletion mutant (residues 1-88, Δ13) (domain or fragment)
chain: not shown
notes: also called Δ13 mutant; S100A4Δ13
stoichiometry N [1]: 2

Kd [2]: 14.7 nM
B2: NMIIA fragment MPT (Tyr-Arg1894-Lys1937) (peptide)
peptide: YRKLQRELEDATETADAMNREVSSLKNKLRRGDLPFVVPRRMARK
notes: extra N-terminal tyrosine, printed as 'Tyr-Arg1894-Lys1937'; non-muscle myosin IIA (NMIIA) heavy chain, residues Arg1894-Lys1937; also called MPT peptide; myosin IIA fragment; not shown: His10, N-terminal, cleaved; ubiquitin, N-terminal, cleaved
